Results as given in patent US20220363757A1.

Assays:
Experiment in all cases: SPR, Fab over captured mutant LAG-3-Fc
[1] = target: human LAG-3 domain 1-2 Fc fusion, chimeric construct #11 (mutated region AA 74-82) (human) (UniProt P18627)
[2] = target: human LAG-3 domain 1-2 Fc fusion, chimeric construct #19 (mutated region AA 118-127) (human) (UniProt P18627)
[3] = target: human LAG-3 domain 1-2 Fc fusion, chimeric construct #2 (mutated region AA 29-30) (human) (UniProt P18627)
[4] = target: human LAG-3 domain 1-2 Fc fusion, chimeric construct #24 (mutated region AA 148-154) (human) (UniProt P18627)
[5] = target: human LAG-3 domain 1-2 Fc fusion, chimeric construct #26 (mutated region AA 157-161) (human) (UniProt P18627)
[6] = target: human LAG-3 domain 1-2 Fc fusion, chimeric construct #5 (mutated region AA 46-51) (human) (UniProt P18627)
[7] = target: human LAG-3 domain 1-2 Fc fusion, chimeric construct #6 (mutated region AA 48-55) (human) (UniProt P18627)
[8] = target: human LAG-3 domain 1-2 Fc fusion, chimeric construct #8 (mutated region AA 59-66) (human) (UniProt P18627)
[9] = target: human LAG-3 domain 1-2 Fc fusion, point mutation #10 S54A (human) (UniProt P18627)
[10] = target: human LAG-3 domain 1-2 Fc fusion, point mutation #11 L56A (human) (UniProt P18627)
[11] = target: human LAG-3 domain 1-2 Fc fusion, point mutation #13 R58A (human) (UniProt P18627)
[12] = target: human LAG-3 domain 1-2 Fc fusion, point mutation #15 Q64A (human) (UniProt P18627)
[13] = target: human LAG-3 domain 1-2 Fc fusion, point mutation #18 P67A (human) (UniProt P18627)
[14] = target: human LAG-3 domain 1-2 Fc fusion, point mutation #2 Q41A (human) (UniProt P18627)
[15] = target: human LAG-3 domain 1-2 Fc fusion, point mutation #21 A74S (human) (UniProt P18627)
[16] = target: human LAG-3 domain 1-2 Fc fusion, point mutation #24 G77A (human) (UniProt P18627)
[17] = target: human LAG-3 domain 1-2 Fc fusion, point mutation #26 P79A (human) (UniProt P18627)
[18] = target: human LAG-3 domain 1-2 Fc fusion, point mutation #33 P86A (human) (UniProt P18627)
[19] = target: human LAG-3 domain 1-2 Fc fusion, point mutation #38 S91A (human) (UniProt P18627)
[20] = target: human LAG-3 domain 1-2 Fc fusion, point mutation #40 G93A (human) (UniProt P18627)
[21] = target: human LAG-3 domain 1-2 Fc fusion, point mutation #41 P94A (human) (UniProt P18627)
[22] = target: human LAG-3 domain 1-2 Fc fusion, point mutation #42 R95A (human) (UniProt P18627)
[23] = target: human LAG-3 domain 1-2 Fc fusion, point mutation #44 R97A (human) (UniProt P18627)
[24] = target: human LAG-3 domain 1-2 Fc fusion, point mutation #53 L109A (human) (UniProt P18627)
[25] = target: human LAG-3 domain 1-2 Fc fusion, point mutation #55 S111A (human) (UniProt P18627)
[26] = target: human LAG-3 domain 1-2 Fc fusion, point mutation #56 G112A (human) (UniProt P18627)
[27] = target: human LAG-3 domain 1-2 Fc fusion, point mutation #58 P115A (human) (UniProt P18627)
[28] = target: human LAG-3 domain 1-2 Fc fusion, point mutation #65 R125A (human) (UniProt P18627)
[29] = target: human LAG-3 domain 1-2 Fc fusion, point mutation #71 D131A (human) (UniProt P18627)
[30] = target: human LAG-3 domain 1-2 Fc fusion, point mutation #73 R137A (human) (UniProt P18627)
[31] = target: human LAG-3 domain 1-2 Fc fusion, point mutation #74 P138A (human) (UniProt P18627)
[32] = target: human LAG-3 domain 1-2 Fc fusion, point mutation #76 D143A (human) (UniProt P18627)
[33] = target: human LAG-3 domain 1-2 Fc fusion, point mutation #80 R163A (human) (UniProt P18627)
human LAG-3 domain 1-2 Fc fusion, point mutation #80 R163A (human), sequence (P18627 23-266 R163A): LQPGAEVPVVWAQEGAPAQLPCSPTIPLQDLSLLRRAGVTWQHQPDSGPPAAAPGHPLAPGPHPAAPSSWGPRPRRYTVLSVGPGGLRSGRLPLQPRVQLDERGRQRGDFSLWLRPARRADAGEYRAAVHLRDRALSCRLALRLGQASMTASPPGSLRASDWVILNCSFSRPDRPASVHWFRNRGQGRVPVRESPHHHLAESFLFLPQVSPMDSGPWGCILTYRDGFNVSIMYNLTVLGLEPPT

human LAG-3 domain 1-2 Fc fusion, point mutation #41 P94A (human), sequence (P18627 23-266 P94A): as the sequence (P18627 23-266 R163A) above, with P72A, A141R counted along it
human LAG-3 domain 1-2 Fc fusion, point mutation #74 P138A (human), sequence (P18627 23-266 P138A): as the sequence (P18627 23-266 R163A) above, with P116A, A141R counted along it
human LAG-3 domain 1-2 Fc fusion, point mutation #44 R97A (human), sequence (P18627 23-266 R97A): as the sequence (P18627 23-266 R163A) above, with R75A, A141R counted along it
human LAG-3 domain 1-2 Fc fusion, point mutation #26 P79A (human), sequence (P18627 23-266 P79A): as the sequence (P18627 23-266 R163A) above, with P57A, A141R counted along it
human LAG-3 domain 1-2 Fc fusion, point mutation #24 G77A (human), sequence (P18627 23-266 G77A): as the sequence (P18627 23-266 R163A) above, with G55A, A141R counted along it
human LAG-3 domain 1-2 Fc fusion, chimeric construct #11 (mutated region AA 74-82) (human), sequence (P18627 other isoform, or with tags, fused parts or gaps mutant): as the sequence (P18627 23-266 R163A) above, with A52S, A53I, G55A, H56L, P57D, A59L, P60Q, A141R counted along it
human LAG-3 domain 1-2 Fc fusion, chimeric construct #5 (mutated region AA 46-51) (human), sequence (P18627 other isoform, or with tags, fused parts or gaps mutant): as the sequence (P18627 23-266 R163A) above, with P24L, T25E, I26F, L28H, Q29L, A141R counted along it
human LAG-3 domain 1-2 Fc fusion, point mutation #13 R58A (human), sequence (P18627 23-266 R58A): as the sequence (P18627 23-266 R163A) above, with R36A, A141R counted along it
human LAG-3 domain 1-2 Fc fusion, chimeric construct #2 (mutated region AA 29-30) (human), sequence (P18627 other isoform, or with tags, fused parts or gaps mutant): as the sequence (P18627 23-266 R163A) above, with V7L, P8S, A141R counted along it
human LAG-3 domain 1-2 Fc fusion, chimeric construct #6 (mutated region AA 48-55) (human), sequence (P18627 other isoform, or with tags, fused parts or gaps mutant): as the sequence (P18627 23-266 R163A) above, with I26F, L28H, Q29L, L31P, S32N, L33F, A141R counted along it
human LAG-3 domain 1-2 Fc fusion, point mutation #2 Q41A (human), sequence (P18627 23-266 Q41A): as the sequence (P18627 23-266 R163A) above, with Q19A, A141R counted along it
human LAG-3 domain 1-2 Fc fusion, point mutation #73 R137A (human), sequence (P18627 23-266 R137A): as the sequence (P18627 23-266 R163A) above, with R115A, A141R counted along it
human LAG-3 domain 1-2 Fc fusion, chimeric construct #24 (mutated region AA 148-154) (human), sequence (P18627 other isoform, or with tags, fused parts or gaps mutant): as the sequence (P18627 23-266 R163A) above, with R126H, A128F, H130R, R132P, A141R counted along it
human LAG-3 domain 1-2 Fc fusion, point mutation #18 P67A (human), sequence (P18627 23-266 P67A): as the sequence (P18627 23-266 R163A) above, with P45A, A141R counted along it
human LAG-3 domain 1-2 Fc fusion, chimeric construct #8 (mutated region AA 59-66) (human), sequence (P18627 other isoform, or with tags, fused parts or gaps mutant): as the sequence (P18627 23-266 R163A) above, with A37G, G38W, Q44R, A141R counted along it
human LAG-3 domain 1-2 Fc fusion, point mutation #42 R95A (human), sequence (P18627 23-266 R95A): as the sequence (P18627 23-266 R163A) above, with R73A, A141R counted along it
human LAG-3 domain 1-2 Fc fusion, point mutation #58 P115A (human), sequence (P18627 23-266 P115A): as the sequence (P18627 23-266 R163A) above, with P93A, A141R counted along it
human LAG-3 domain 1-2 Fc fusion, point mutation #21 A74S (human), sequence (P18627 23-266 A74S): as the sequence (P18627 23-266 R163A) above, with A52S, A141R counted along it

Fab fragment of 25F7-Lag3.5 analogue was tested, and the KD mutant/KD wild type [1] was 1.1 fold, the KD mutant/KD wild type [2] was 0.8 fold and the KD mutant/KD wild type [3] was 1.2 fold. The KD mutant/KD wild type [4] was 0.7 fold, the KD mutant/KD wild type [5] was 0.9 fold and the KD mutant/KD wild type [6] was 1.3 fold. For the same substance, the KD mutant/KD wild type [7] was 1.4 fold, the KD mutant/KD wild type [8] was 1.3 fold and the KD mutant/KD wild type [9] was 0.8 fold. The KD mutant/KD wild type [10] was 0.9 fold, the KD mutant/KD wild type [11] was 0.8 fold and the KD mutant/KD wild type [12] was 1.3 fold. It also gave a KD mutant/KD wild type [13] of 1.1 fold, a KD mutant/KD wild type [14] of 1 fold and a KD mutant/KD wild type [15] of 0.9 fold. It also gave a KD mutant/KD wild type [16] of 1 fold, a KD mutant/KD wild type [17] of 0.8 fold and a KD mutant/KD wild type [18] of 2.7 fold. The KD mutant/KD wild type [19] was 2.2 fold, the KD mutant/KD wild type [20] was 6.2 fold and the KD mutant/KD wild type [21] was 0.8 fold. The KD mutant/KD wild type [22] was 1.9 fold, the KD mutant/KD wild type [23] was 0.9 fold and the KD mutant/KD wild type [24] was 0.9 fold. It also gave a KD mutant/KD wild type [25] of 0.9 fold, a KD mutant/KD wild type [26] of 0.9 fold and a KD mutant/KD wild type [27] of 1 fold. For the same substance, the KD mutant/KD wild type [28] was 0.9 fold, the KD mutant/KD wild type [29] was 1.2 fold and the KD mutant/KD wild type [30] was 1 fold. For the same substance, the KD mutant/KD wild type [31] was 1 fold, the KD mutant/KD wild type [32] was 1 fold and the KD mutant/KD wild type [33] was 1 fold.
